This data set can be described thus: self-splicing fitness, log relative to wild type (ln ratio); higher = more splicing; Tetrahymena group I intron in knt gene, E. coli kanamycin selection, DiMSum; sequences stand for … in CUCUCU…GGAGGGAAAAGUUAUCAGGCAUGCACCUGGUAGCUAGUCUUUAAACCAAUAGAUUGCAUCGGUUUAAAAGGCAAGACCGUCAAAUUGCGGGAAAGGGGUCAACAGCCGUUCAGUACCAAGUCUCAGGGGAAACUUUGAGAUGGCCUUGCAAAGGGUAUGGUAAUAAGCUGACGGACAUGGUCCUAACCACGCAGCCAAGUCCUAAGUCAACAGAUCUUCUGUUGAUAUGGAUGCAGUUCACAGACUAAAUGUCGGUCGGGGAAGAUGUAUUCUUCUCAUAAGAUAUAGUCGGACCUCUCCUUAAUGGGAGCUAGCGGAUGAAGUGAUGCAACACUGGAGCCGCUGGGAACUAAUUUGUAUGCGAAAGUAUAUUGAUUAGUUUUGGAGUACUCGUGGUCG
In a few lines:
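The eight P1ex-region nucleotides of an intron in the knt kanamycin-resistance gene on pET-22b(+) were all randomised and the library put into E. coli BL21(DE3). Six replicate transformations were grown overnight at 37°C or 30°C on LB agar with or without 25 μg/mL kanamycin, together with 100 μg/mL carbenicillin, 50 μM IPTG and 0.2% rhamnose. Colonies were pooled and amplicon-sequenced on an Illumina HiSeq 2500. Fitness from DiMSum is the error-weighted combination of wild-type-normalised replicate fold changes, kanamycin over none.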

± gives the uncertainty stated by the source.

With CGCGAGCAAUAUUACGUGUA, the “self-splicing fitness (ln)” value is -3.72 ± 0.18 (30 °C) and -1.48 ± 0.11 (37 °C).

For CGCGAGCAAUAUUACGUUGC, the “self-splicing fitness (ln)” value (30 °C) is -3.68 ± 0.3. As for CGCGAGCAAUAUUACGUUUG, the “self-splicing fitness (ln)” value (30 °C) was -4.03 ± 0.21 and the “self-splicing fitness (ln)” value (37 °C) is -1.91 ± 0.18. On the same counts, the results for CGCUAGCAAUAUUACGAAGG are -1.06 ± 0.098 and -0.735 ± 0.13. The matching figures for CGCUAGCAAUAUUACGAAUC: -3.64 ± 0.21 and -0.947 ± 0.15. On the same counts, the results for CGCUAGCAAUAUUACGACUA are -2.81 ± 0.16 and -2.52 ± 0.23.

Regarding CGCUAGCAAUAUUACGACUG, the “self-splicing fitness (ln)” value was -0.448 ± 0.05 (30 °C) and 0.456 ± 0.068 (37 °C). On the same counts, the results for CGCUAGCAAUAUUACGAUCC are -2.01 ± 0.37 and -1.74 ± 0.42. The matching figures for CGCUAGCAAUAUUACGCACG: -2.53 ± 0.17 and -2.06 ± 0.24. On the same counts, the results for CGCUAGCAAUAUUACGCAGG are -3.17 ± 0.18 and -1.83 ± 0.23.

With CGCUAGCAAUAUUACGCAUA, the “self-splicing fitness (ln)” value was -3.26 ± 0.21 (30 °C) and -2.36 ± 0.21 (37 °C). On the same counts, the results for CGCUAGCAAUAUUACGCCAC are -3.86 ± 0.43 and -1.09 ± 0.26.

For CGCUAGCAAUAUUACGCCGC, the “self-splicing fitness (ln)” value (30 °C) is -2.55 ± 0.18. With CGCUAGCAAUAUUACGGAGU, the “self-splicing fitness (ln)” value is -3.65 ± 0.27 (30 °C) and -2.42 ± 0.25 (37 °C). On the same counts, the results for CGCUAGCAAUAUUACGGGGA are -2.93 ± 0.32 and -1.95 ± 0.32. As to CGCUAGCAAUAUUACGGGUA, the “self-splicing fitness (ln)” value reads like this: (30 °C) -0.542 ± 0.11; (37 °C) -0.011 ± 0.12.

On to CGCUAGCAAUAUUACGGGUG, for which the “self-splicing fitness (ln)” value (30 °C) is -3.31 ± 0.12 and the “self-splicing fitness (ln)” value (37 °C) is -2.83 ± 0.13. For CGCUAGCAAUAUUACGGUGU, the “self-splicing fitness (ln)” value runs as follows: (30 °C) -3.54 ± 0.15; (37 °C) -2.22 ± 0.21. The matching figures for CGCUAGCAAUAUUACGUAAC: -4.07 ± 0.31 and -2.87 ± 0.38. CGCUAGCAAUAUUACGUAGG: the “self-splicing fitness (ln)” value reads like this: (30 °C) -1.4 ± 0.058; (37 °C) -0.925 ± 0.081. On the same counts, the results for CGCUAGCAAUAUUACGUCUC are -2.62 ± 0.48 and -1.46 ± 0.23. On the same counts, the results for CGCUAGCAAUAUUACGUCUG are -0.182 ± 0.078 and 0.774 ± 0.089. As for CGCUAGCAAUAUUACGUGAA, the “self-splicing fitness (ln)” value is -3.59 ± 0.16 (30 °C) and -2.34 ± 0.087 (37 °C). The matching figures for CGCUAGCAAUAUUACGUUCU: -2.16 ± 0.11 and -1.67 ± 0.12. On the same counts, the results for CGCUAGCAAUAUUACGUUUA are -3.37 ± 0.23 and -2.56 ± 0.18. Consider CGCUAGCAAUAUUACGUUUU, for which the “self-splicing fitness (ln)” value reads like this: (30 °C) -3.8 ± 0.16; (37 °C) -1.68 ± 0.13. For CGGAAGCAAUAUUACGAACC, the “self-splicing fitness (ln)” value (37 °C) was -1.43 ± 0.41. As to CGGAAGCAAUAUUACGAAGA, the “self-splicing fitness (ln)” value by setting is: (30 °C) -3.45 ± 0.4; (37 °C) -3.08 ± 0.47.

Take CGGAAGCAAUAUUACGAAUG: the “self-splicing fitness (ln)” value is -0.506 ± 0.079 (30 °C) and -0.137 ± 0.12 (37 °C). The matching figures for CGGAAGCAAUAUUACGACUA: -0.269 ± 0.1 and 0.239 ± 0.1. Regarding CGGAAGCAAUAUUACGAGAA, the “self-splicing fitness (ln)” value runs as follows: (30 °C) -2.88 ± 0.48; (37 °C) -2.03 ± 0.24. On the same counts, the results for CGGAAGCAAUAUUACGAGUU are -3.29 ± 0.2 and -2.49 ± 0.2. The matching figures for CGGAAGCAAUAUUACGAUCG: -1.86 ± 0.1 and -1.07 ± 0.14. The matching figures for CGGAAGCAAUAUUACGAUGA: -1.91 ± 0.11 and -0.379 ± 0.096. Consider CGGAAGCAAUAUUACGCAGA, for which the “self-splicing fitness (ln)” value reads like this: (30 °C) -1.98 ± 0.33; (37 °C) -2.01 ± 0.3. The matching figures for CGGAAGCAAUAUUACGCAGC: -3.56 ± 0.37 and -1.49 ± 0.27. Take CGGAAGCAAUAUUACGCAGU: the “self-splicing fitness (ln)” value is -2.73 ± 0.14 (30 °C) and -2.25 ± 0.21 (37 °C). On the same counts, the results for CGGAAGCAAUAUUACGCCGG are -0.726 ± 0.15 and 0.698 ± 0.19.

The values above are taken from the supplement of paper PMC7877785.
